Reference: the supplement of paper PMC9732359
± gives the uncertainty stated by the source.

Assay: protein stability index of a GFP-peptide fusion (yeast GPS) (PSI 1-4); higher = more stable; sorted into four equal gates, so the index is relative within each strain
Method in brief: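 Plasmids in a pooled yeast library fused tiled 17-residue yeast protein peptides downstream of GFP and also expressed Cherry. Mid-log cultures grown without leucine were sorted into four equal gates by GFP/Cherry fluorescence ratio. Each gate's plasmids were PCR-amplified and Illumina-sequenced, and reads were matched to strains by barcodes. The protein stability index is derived by multiplying each gate's read frequency by its gate number and summing the results.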

| Sequence | protein stability index (doa10∆) | protein stability index (pdr5∆) | protein stability index (ubr1∆) | protein stability index (san1∆) |
| --- | --- | --- | --- | --- |
| GGTSLFGNTSTSSAPAQ [YGL172W/NUP49] | 2.17 ± 0.17 | 2.19 ± 0.096 | 2.15 ± 0.091 |  |
| LGIKVAELTGDSRLSRK [BRR2] |  | 2.18 ± 0.19 |  | 2.67 ± 0.16 |
| ILLEPIYEVDITVHAPL [SNU114] | 2.57 ± 0.049 | 2.56 ± 0.06 | 2.47 ± 0.046 | 2.43 ± 0.085 |
| AAGYGKILGKGRIPNVP [RPL28] | 3.46 ± 0.087 | 3.2 ± 0.075 | 3.48 ± 0.05 | 3.46 ± 0.066 |
| KSKEDMKQLKFFKPLDY [SNU114] | 3.32 ± 0.14 | 3.08 ± 0.098 | 3.29 ± 0.087 | 3.05 ± 0.16 |
| GSNNAQTSRGLFGNNNT [YGL172W/NUP49] | 3.24 ± 0.087 | 3.25 ± 0.074 | 3.16 ± 0.1 | 3.14 ± 0.046 |
| ENDLSFALMRYYDRKEE [RRI2] | 3.12 ± 0.13 | 2.88 ± 0.12 | 2.98 ± 0.073 | 2.97 ± 0.071 |
| TPYNADFDGDEMNLHVP [RPO31] | 2.83 ± 0.087 | 3.35 ± 0.085 | 3.21 ± 0.062 | 3.07 ± 0.075 |
| NTTKTADTKAPTFTFGS [YLR335W/NUP2] | 3.36 ± 0.08 | 3.33 ± 0.063 | 3.38 ± 0.057 | 3.21 ± 0.061 |
| EENFEATRTLVASIQND [YCG1] | 3.03 ± 0.16 | 3.24 ± 0.11 | 2.71 ± 0.14 | 3 ± 0.14 |
| NSGKQQYYRGLPLYEKN [SWP82] | 2.56 ± 0.089 | 2.5 ± 0.06 | 3.01 ± 0.043 | 2.9 ± 0.075 |
| QVPLQQTQAIAQQQQLS [YGR119C/NUP57] | 2.14 ± 0.08 | 2.41 ± 0.076 | 2.29 ± 0.06 | 2.15 ± 0.077 |
| KSNSTGNISSSTVKKKD [REC8] | 2.96 ± 0.058 | 2.96 ± 0.058 | 3.02 ± 0.049 | 2.83 ± 0.039 |
| KELFGEDEDEDLFGDSN [SSN2] | 3.32 ± 0.2 | 3.54 ± 0.2 | 3.67 ± 0.2 | 3.21 ± 0.27 |
| RIHTNDNDIMNLGSRTK [SSN3] | 3.08 ± 0.048 | 2.97 ± 0.043 | 3.03 ± 0.037 | 2.95 ± 0.035 |
| LKLNHIIANINSFTKGN [SNU114] | 1.52 ± 0.059 | 2.15 ± 0.062 | 1.84 ± 0.035 | 1.83 ± 0.054 |
| PLGVILTFVSVDEELGP [SCL1] | 1.72 ± 0.039 | 1.9 ± 0.037 | 2.46 ± 0.04 | 2.67 ± 0.052 |
| ENDHERGFFHLNEALLQ [CSN12] | 3.08 ± 0.075 | 2.91 ± 0.062 | 3.06 ± 0.082 | 3.28 ± 0.09 |
| IIERYIKSKADAWVSAA [PRP8] | 1.86 ± 0.082 | 1.88 ± 0.072 | 2.09 ± 0.12 | 2.39 ± 0.11 |
| KDHDLKIPLPEVHDLIG [POP1] | 3.11 ± 0.12 | 2.91 ± 0.14 | 2.54 ± 0.11 | 2.73 ± 0.21 |
| WIKFLLHTLYLRPASAI [SSN8] | 1.74 ± 0.045 | 1.29 ± 0.035 | 1.15 ± 0.038 | 1.25 ± 0.068 |
| KKLVWPLHLIFAQPVAD [SSN2] | 1.88 ± 0.075 | 1.39 ± 0.073 | 1.17 ± 0.062 | 1.26 ± 0.11 |

| Sequence | protein stability index (doa10∆) | protein stability index (pdr5∆) | protein stability index (ubr1∆) | protein stability index (san1∆) |
| --- | --- | --- | --- | --- |
| MKIQAGQLGLDDNDVPG [YLR018C/POM34] | 3.22 ± 0.19 | 3 ± 0.14 | 3.11 ± 0.29 | 2.5 ± 0.21 |
| LPSEERIQKIISKRKEE [YIL149C/MLP2] | 1.74 ± 0.08 | 1.66 ± 0.074 | 1.65 ± 0.055 | 1.41 ± 0.16 |
| VAPFMIKYEFNGIPLKS [YMR129W/POM152] | 2.54 ± 0.077 | 1.91 ± 0.045 | 2.75 ± 0.073 | 2.38 ± 0.083 |
| ATSKTSEMLAKYSDILL [CDC53] | 3.11 ± 0.091 | 3.18 ± 0.099 | 3.07 ± 0.048 | 2.99 ± 0.1 |
| YNNRKCWPKDSRMRLIR [PRP8] | 2.05 ± 0.09 | 2.13 ± 0.12 | 2.64 ± 0.14 | 2.19 ± 0.11 |
| RDVELSSDELKVIEEQL [SMC4] | 3.27 ± 0.058 | 3.25 ± 0.072 | 3.26 ± 0.055 | 2.94 ± 0.054 |
| IMDNDPVLFNRQPSLHK [RPO21] | 1.77 ± 0.074 | 2.17 ± 0.069 | 1.84 ± 0.074 | 2.26 ± 0.23 |
| LGYKDTSVIQDLSEKIL [BRR2] | 2.77 ± 0.098 | 2.8 ± 0.098 | 2.89 ± 0.065 | 2.81 ± 0.063 |
| VNGSPITLVEPEILRFK [RPS16A] |  | 2.79 ± 0.15 | 3.36 ± 0.17 |  |
| EDLLECLDRCKEQYNRY [MTR3] | 3.18 ± 0.11 | 3.46 ± 0.08 | 3.38 ± 0.085 | 3.24 ± 0.079 |
| SANGYLNATTAMDLAQM [BRR2] | 3.23 ± 0.17 |  |  | 3.15 ± 0.088 |
| NLFKINSIDVPIRINST [YMR129W/POM152] | 1.89 ± 0.044 | 2.2 ± 0.042 | 2.17 ± 0.033 | 2.02 ± 0.058 |
| EKPAPVRTHMRNMIIVP [RPS15] | 1.13 ± 0.064 | 1.17 ± 0.081 | 1.14 ± 0.095 | 1.21 ± 0.19 |
| GIIEPSLKALASKYNCD [RPL40A] | 3.44 ± 0.17 | 3.27 ± 0.23 | 3.19 ± 0.2 | 3.09 ± 0.085 |
| NHPELQGITRNVVNYLS [RPC17] | 2.02 ± 0.062 | 1.83 ± 0.061 | 2.47 ± 0.062 | 2.19 ± 0.11 |
| NQIWNIALNLASKKFGK [SSN2] | 2.7 ± 0.13 | 2.88 ± 0.052 | 3.08 ± 0.056 | 3.06 ± 0.067 |
| DKELRKTKFQYKFLDQN [YIL149C/MLP2] | 2.72 ± 0.084 | 2.96 ± 0.075 | 2.98 ± 0.059 | 2.96 ± 0.064 |
| MSSEIAYSNTNTNTENE [SNF11] |  |  | 3.04 ± 0.2 | 2.64 ± 0.24 |
| YLVEAPWNDDYPFLLSF [YML103C/NUP188] | 1.4 ± 0.048 | 1.69 ± 0.066 | 1.61 ± 0.072 | 1.43 ± 0.097 |
| VQRQIEQQKGQQTAQTQ [SNF5] | 3.41 ± 0.08 | 3.3 ± 0.078 | 3.07 ± 0.055 | 3.3 ± 0.061 |
| TEKDDNKTNNEDLFDDY [NUT1] | 2.92 ± 0.055 | 3.25 ± 0.053 | 3.08 ± 0.049 | 3.01 ± 0.052 |
